Reference: patent publication US20030194727

Legend:
[1] = system: K5 mutant ZFP (VSSR-DGAV-VSSR-VDYK-Gal4AD) N80A (Asn DNA-contacting residue of finger 2, DGNV to DGAV; position counted in SEQ 225) (Artificial Sequence); test: EMSA; conditions: at least 10-fold decrease in DNA-binding affinity for expected site; no ketoconazole resistance in yeast
[2] = system: K5 ZFP (VSSR-DGNV-VSSR-VDYK-Gal4AD) (Artificial Sequence); test: EMSA; conditions: reference for the mutant comparison; binding of parent K5 implied by gel shift; exact probe not given, degenerate expected site
Chain of K5 ZFP (VSSR-DGNV-VSSR-VDYK-Gal4AD) (Artificial Sequence) (chain, as listed by the source): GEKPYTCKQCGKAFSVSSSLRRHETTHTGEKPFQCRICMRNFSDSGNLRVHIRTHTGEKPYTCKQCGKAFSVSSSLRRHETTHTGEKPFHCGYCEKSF

Chain of K5 mutant ZFP (VSSR-DGAV-VSSR-VDYK-Gal4AD) N80A (Asn DNA-contacting residue of finger 2, DGNV to DGAV; position counted in SEQ 225) (Artificial Sequence) (chain, as listed by the source N80A): as the sequence (chain, as listed by the source) above, with N47A counted along it

KATGTDAACGTD (double strand) [K5 expected target site]
binding signal [1]: < 0.1 fold of K5 | binding signal [2]: 1
